Assay results reported in patent publication US20180244785A1 (MERRIMACK PHARMACEUTICALS, published 2018).

T1: recombinant human FGFR3c Fc fusion (human, UniProt P22607 141-372)
T1 construct: also called FGFR3IIIc; not shown: Fc part of the FGFR-Fc fusion
T1 sequence: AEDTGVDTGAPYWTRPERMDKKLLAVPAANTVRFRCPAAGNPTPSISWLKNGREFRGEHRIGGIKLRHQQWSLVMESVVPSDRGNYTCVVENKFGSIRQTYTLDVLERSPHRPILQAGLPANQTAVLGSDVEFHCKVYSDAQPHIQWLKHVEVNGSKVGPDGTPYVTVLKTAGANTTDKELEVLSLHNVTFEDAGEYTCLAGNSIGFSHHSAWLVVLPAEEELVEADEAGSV

T2: FGFR2IIIb Fc fusion (negative control) (human)
T2 construct: also called FGFR2b; not shown: Fc part of the FGFR-Fc fusion
T2 chain: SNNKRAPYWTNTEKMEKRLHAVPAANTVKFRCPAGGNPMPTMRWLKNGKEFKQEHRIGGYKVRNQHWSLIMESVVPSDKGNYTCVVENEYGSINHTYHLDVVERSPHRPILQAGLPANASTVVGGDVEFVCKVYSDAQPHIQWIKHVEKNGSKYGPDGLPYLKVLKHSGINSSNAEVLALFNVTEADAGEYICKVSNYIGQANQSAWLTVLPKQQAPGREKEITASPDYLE

T3: recombinant human FGFR1c Fc fusion (human, UniProt P11362 141-376)
T3 construct: also called FGFR1IIIc; not shown: Fc part of the FGFR-Fc fusion
T3 sequence: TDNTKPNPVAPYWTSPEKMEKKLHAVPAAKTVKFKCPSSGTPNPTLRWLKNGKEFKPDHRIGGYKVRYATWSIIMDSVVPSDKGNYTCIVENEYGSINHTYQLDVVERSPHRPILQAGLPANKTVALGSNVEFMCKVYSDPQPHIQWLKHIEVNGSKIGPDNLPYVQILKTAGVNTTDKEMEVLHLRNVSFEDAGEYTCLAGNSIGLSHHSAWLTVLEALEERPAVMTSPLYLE

T4: recombinant human FGFR4 Fc fusion (human, UniProt P22455 144-369)
T4 construct: 19 used; also called FGFR4c; not shown: Fc part of the FGFR-Fc fusion
T4 sequence: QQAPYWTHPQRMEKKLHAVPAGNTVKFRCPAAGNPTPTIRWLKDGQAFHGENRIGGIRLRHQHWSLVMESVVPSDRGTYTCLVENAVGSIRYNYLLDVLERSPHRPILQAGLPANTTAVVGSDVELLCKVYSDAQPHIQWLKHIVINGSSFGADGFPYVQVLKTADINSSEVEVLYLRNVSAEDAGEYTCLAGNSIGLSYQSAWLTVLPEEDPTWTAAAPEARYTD


Columns and labels:
Test in all cases: ELISA, scFv on coated FGFR-Fc
[1] = molecular target: T1, recombinant human FGFR3c Fc fusion
Method: (§1) To characterize the novel anti-FGFR antibodies, their relative ability to bind to each individual FGFR in vitro was compared. A solid phase-based ELISA was used to measure the relative binding of the candidate antibodies to immobilized recombinant human FGFR1c, FGFR2c, FGFR3c, and FGFR4. EC50 binding curves were generated for a subset of candidates (FIGS. 3A-3D, respectively; Table 1).
(§2) For the ELISA assay, the ability of each mAb to cross react with the […] FGF receptors was tested across a concentration curve in order to determine the relative binding across FGFR1-4. FGFR2IIIb was used as a negative control. Black 384-well Maxisorp plates were coated overnight with FGFR-Fc fusions in PBS to 1 ug/ml before washing and blocking with 75 ul/well Pierce Protein Free (PBS) Blocking Buffer for 1 hour at RT. Antibody dilutions were prepared freshly in 1% BSA- PBS+0.05% Tween20 and 25 ul of each antibody was added to wells in duplicate. Plates were incubated at RT for 2 hours, followed by addition of detection antibody at 50 ng/ml in 1% BSA PBS, 0.05% Tween20. ECL substrate (Pierce) was added and plates were read on the EnVision plate reader.

[2] = molecular target: T2, FGFR2IIIb Fc fusion (negative control)
Method: as §1, §2

[3] = molecular target: T3, recombinant human FGFR1c Fc fusion
Method: as §1, §2

[4] = molecular target: T4, recombinant human FGFR4 Fc fusion
Method: as §1, §2

[5] = molecular target: T5, recombinant human FGFR2c Fc fusion (human, UniProt P21802 148-377)
T5 construct: also called FGFR2IIIc; not shown: Fc part of the FGFR-Fc fusion
Method: as §1, §2

T5 sequence (P21802 148-377): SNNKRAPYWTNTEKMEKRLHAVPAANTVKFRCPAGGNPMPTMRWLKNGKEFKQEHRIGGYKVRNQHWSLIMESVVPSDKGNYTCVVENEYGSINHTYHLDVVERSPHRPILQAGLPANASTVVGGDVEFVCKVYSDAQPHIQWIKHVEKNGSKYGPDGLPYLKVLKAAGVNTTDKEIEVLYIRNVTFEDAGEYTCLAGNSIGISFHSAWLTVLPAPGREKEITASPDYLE

| Binder | EC50 [1] [nM] | EC50 [2] [nM] | EC50 [3] [nM] | EC50 [4] [nM] | EC50 [5] [nM] |
| --- | --- | --- | --- | --- | --- |
| Ab3 (scFv format) (scFv, also called FGF#78) scFv: EVQLVESGGGVVQPGRSLRLSCAASGFTFSQYSMHWVRQSPGKGLEWVTLISFDGADKYYADSVKGRFTISRDNSNDTLFLHMNGLRVEDTAIYYCVRGAGRGYTYGPDGFDIWGQGTMVTVSSASTGGGGSGGGGSGGGGSGGGGSDIQLTQSPSSLSASVGDRVTITCRTSQTISRYLNWYQQQPGKAPKLLIYTATSLQSGVPSRFSGSGSGTDFTLTIGGLQPEDFAIYFCQQTYSAPLTFGGGTKVEIKRTVAAPSHHHHHH | 2.02 | ~108000 | 0.319 | 1.07 | 0.62 |
| Ab15 (scFv format) (scFv, also called FGF#26) scFv: EVQLLESGGGVVQPGRSLRLSCAASGFTFSSYAMHWVRQAPGKGLEWVAVISYDGSNKYYADSVKGRFTISRDNSKNTLSLQMNSLRVEDTAIYYCVRGAGRGYTYGPDGFDIWGQGTMVTVSSASTGGGGSGGGGSGGGGSGGGGSDIVMTQTPLSLSVTPGQPASISCTSSRSLLHSDGKTYVYWYVQKSGQPPQLLIYELSNRFSGVPDRFSGSGSRTDFTLKISRVEAEDVGVYYCMQYIEAPLTFGGGTKVEIKRTVAAPSHHHHHH | 0.326 | ~80000 | 0.293 | 0.312 | 0.247 |
| Ab7 (scFv format) (scFv, also called FGF#51) scFv: QVQLVESGGGVVQPGRSLRLSCAASGFTFSGYAIHWVRQAPGKGLEWVALISYDGSNKYYADSAKGRFTISRDNSKNTLSLQMNSLRVEDTAIYYCVRGAGRGYTYGPDGFDIWGQGTMVTVSSASTGGGGSGGGGSGGGGSGGGGSDIVMTQTPLSSPVTLGQPASISCRSSESLVYRDGNTYLSWLHQRPGQSPRLLIYKVSNRFSGVPDRFSGSGAGTDFTLKISRVEAEDVGVYFCMQATQFPWTFGQGTKVEIKRTVAAPSHHHHHH | 1.36 | ~96700 | 0.201 | 0.278 | 1.47 |
| Ab14 (scFv format) (scFv, also called FGF#24) scFv: EVQLVETGGGLIQPGGSLRLSCVASGFTVSSNYMSWVRQAPGKGLEWVSVIFSDGTTYYADSVKGRFTISRDNSKNTLYLQMNSLKTEDTAVYYCVAGPANGAYDIWGQGTMVTVSSASTGGGSGGGGSNIQMTQSPSILSASVGDRVTITCRASQSISNWLAWYQQKPGKAPKLLIFRASTLESGVPSRFSGSGSGAEFNLTISSLQPDDFATYYCQQYNVYSGTFGQGTKVEIKRTVAAPSHHHHHH | 77.2 | ~557000 | 129 | 72 | 75.7 |
